Patent publication US20240254220A1 (CENTRICSBIO, published 2024)

Legend:
[1] = target: T1, CD273[PD-L2] (Sino Biological) (UniProt Q9BQ51 20-219, limits assumed); assay: binding ELISA on coated antigen (8 µg/mL), HRP anti-Fc detection, 450 nm (Experimental Example 2.5)
T1 sequence (looked up): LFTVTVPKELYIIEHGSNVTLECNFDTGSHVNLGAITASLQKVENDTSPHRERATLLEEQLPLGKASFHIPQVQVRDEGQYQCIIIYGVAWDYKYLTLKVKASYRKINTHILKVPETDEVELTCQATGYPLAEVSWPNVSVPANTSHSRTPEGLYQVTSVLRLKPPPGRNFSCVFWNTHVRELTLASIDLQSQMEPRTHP
Protocol: (§1) In order to identify that the anti-CD300c monoclonal antibody CL7 specifically binds only to CD300c without binding to other B7 family proteins, binding ELISA was performed. More specifically, each of CD300c antigen, CD300a antigen, or seven B7 family protein antigens (PD-L1 [B7-H1] (Sino Biological), ICOS Ligand[B7-H2] (Sino Biological), CD276[B7-H3] (Sino Biological), B7-H4 (Sino Biological), CD80[B7-1] (Sino Biological), CD86[B7-2] (Sino Biological), CD273[PD-L2] (Sino Biological)) in a coating buffer (0.1 M sodium carbonate, pH 9.0) was coated on an ELISA plate at a concentration of 8 μg/mL per well, and then bound to the plate by incubation at 2° C. to 8° C. overnight. The unbound antigen was removed by washing with PBST three times, and then […] of blocking buffer (5% skim milk in PBST) was added to each well. Subsequently, blocking was performed at room temperature for 1 hour, followed by washing again with PBST. Thereafter, CL7 was diluted in quadruplicate with PBS, incubated with the antigen at room temperature for 1 hour for antigen binding 1 hour later, and washed three times with PBST. Then, a secondary antibody (HRP-conjugated anti-Fc IgG) diluted to 4 μg/mL in blocking buffer was added thereto, followed by incubation at room temperature for 1 hour. Subsequently, the unbound antibody for detection was removed using PBST, and then a TMB solution was added thereto, followed by incubation for 10 minutes for development. Then, 2 N sulfuric acid solution was added to terminate the development reaction, and the absorbance was measured at 450 nm to identify the antibody specifically binding to the CD300c antigen.

[2] = target: T2, CD86[B7-2] (Sino Biological) (UniProt P42081 24-245, limits assumed); assay: as above
T2 sequence (looked up): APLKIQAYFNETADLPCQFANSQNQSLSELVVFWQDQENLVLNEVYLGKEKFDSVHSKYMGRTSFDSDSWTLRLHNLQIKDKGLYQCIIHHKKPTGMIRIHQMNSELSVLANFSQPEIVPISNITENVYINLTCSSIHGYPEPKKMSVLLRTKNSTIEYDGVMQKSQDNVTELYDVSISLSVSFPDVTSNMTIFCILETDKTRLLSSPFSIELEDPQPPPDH
Protocol: as §1

[3] = target: T3, CD80[B7-1] (Sino Biological) (UniProt P33681 35-242); assay: as above
T3 sequence (looked up): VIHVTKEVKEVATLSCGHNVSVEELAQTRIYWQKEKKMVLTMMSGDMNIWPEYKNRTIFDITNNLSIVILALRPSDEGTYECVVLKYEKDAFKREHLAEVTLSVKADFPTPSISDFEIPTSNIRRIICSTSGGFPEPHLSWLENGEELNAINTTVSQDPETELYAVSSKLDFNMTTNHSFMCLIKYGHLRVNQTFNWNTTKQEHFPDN
Protocol: as §1

[4] = target: T4, B7-H4 (Sino Biological) (UniProt Q7Z7D3 25-258, limits assumed); assay: as above
T4 sequence (looked up): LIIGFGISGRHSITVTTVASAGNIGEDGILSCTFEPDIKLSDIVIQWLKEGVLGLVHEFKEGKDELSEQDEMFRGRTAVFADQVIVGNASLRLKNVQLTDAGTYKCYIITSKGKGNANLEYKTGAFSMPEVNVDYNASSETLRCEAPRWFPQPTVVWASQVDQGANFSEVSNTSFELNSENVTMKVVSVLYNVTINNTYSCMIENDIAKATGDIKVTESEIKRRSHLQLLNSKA
Protocol: as §1

[5] = target: T5, CD300c antigen (11832-H08H, Sino Biological) (human, UniProt Q08708 21-183); assay: binding ELISA on coated CD300c antigen (800 ng/mL), anti-Fc secondary antibody, 450 nm (Experimental Example 2.3)
T5 construct: Bought antigen; also called CD300c protein; CD300 antigen-like family member C
T5 sequence (looked up): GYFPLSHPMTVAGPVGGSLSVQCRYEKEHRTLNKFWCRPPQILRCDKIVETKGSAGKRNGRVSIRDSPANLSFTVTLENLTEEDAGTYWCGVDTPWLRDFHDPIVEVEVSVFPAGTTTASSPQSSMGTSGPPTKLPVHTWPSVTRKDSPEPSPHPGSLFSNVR
Protocol: CD300c antigen (250 ug/mL) was diluted to a concentration of 800 ng/mL in coating buffer (0.1 M sodium carbon ate, pH 9.0), placed into a 96-well microplate at 100 μL per well, and incubated at 4° C. overnight. The next day, the microplate was washed three times with 200 μL of PBST. Thereafter, 200 μL of a blocking buffer (5% skim milk) was added thereto, followed by blocking at room temperature for 1 hour. The anti-CD300c monoclonal antibody CL7 was diluted to 200 μg/mL in PBS, and the concentration thereof was checked by measurement using Nanodrop (product name: NanoDrop One/One, manufactured by Thermo Fisher Scientific). Subsequently, CL7 was diluted in quadruplicate with PBS starting from 10 μg/mL, and added at 100 μL each, followed by incubation at room temperature for 1 hour. After the incubation, the microplate was washed three times with […] of PBST. A secondary antibody (conjugated anti-Fc IgG) was diluted 1:10,000 in blocking buffer, and added at 100 μL, followed by incubation at room temperature for 1 hour, and then washed three times with 200 μL of PBST. Subsequently, TMB and hydrogen peroxide were mixed 1:1, and added at 100 μL per well, followed by incubation at room temperature for 7 to 9 minutes.

B1: CL7 (antibody, V domains shown)
VH: EVQLLESGGGLVQPGGSLRLSCAASGFTFSRYAMSWVRQAPGKGLEWVSAISGSGGSTYYADSVKGRFTISRDNSKNTLYLQMNSLRAEDTAVYYCARSSQGIFDIWGQGTLVTVSS
VL: QSVLTQPPSASGTPGQRVTISCSGNNIGTRRVHWYQQLPDTAPKLLIYSKNNRPSGVPDRFSGSKSGTSASLAISGLRSEDEADYYCAAWDDSLSGPVFGGGTKLTVL
notes: detected with anti-human IgG (H+L) and anti-Fc IgG; also called anti-CD300c monoclonal antibody CL7; anti-CD300c monoclonal antibody (CL7)
[1]
  binding result: no binding (tested: log10 about 0.4 ug/ml (about 2.5 ug/ml))
[2]
  binding result: no binding (tested: log10 about 0.4 ug/ml (about 2.5 ug/ml))
[3]
  binding result: no binding (tested: log10 about 0.4 ug/ml (about 2.5 ug/ml))
[4]
  binding result: no binding (tested: log10 about 0.4 ug/ml (about 2.5 ug/ml))
[5]
  EC50 (read off the curve): ~0.06 µg/mL
